Measurements taken from article PMC7970865 (Scientific Reports, 2021).

T1: NPDP19 peptide (Plasmodium falciparum CSP junction, …)
T1 construct: also called peptide NPDP-19
T1 chain: KQPADGNPDPNANPNVDPN

T2: peptide 21 (Plasmodium falciparum CSP junction, …)
T2 construct: also called NP-DPNA-NPNV-DPNA-N
T2 chain: NPDPNANPNVDPNAN

B1: mAb 311 (antibody, V domains shown)
VH: QVQLVESGGGVVPPGRSLRLSCATSGFTFSNYGMHWVRQAPGKGLEWVAIIWYDGSRNFYAASVEGRFTISRDNSKNTLYLQMNSLRVEDTAVYYCARAAYYDTSGYGDYWGQGTLVTVSS
VL: QSVLTQPPSVSGAPGQTVTISCTGGSSNIGAGYDVHWYQQLPGTAPKLLIYGNINRPSGVPDRFSGSKSGTSASLAITGLQAEDEADYYCQSYDRRLSGSWVFGGGTKLTVL
B2: Fab 311 (Fab, V domains shown)
VH: B1 VH
VL: B1 VL
B3: mAb MGG4 (antibody, V domains shown)
VH: QVQLVESGGGVVQPGRSLRLSCAASGFRFSDYGMHWVRQAPGKGLEWVALIWYDGSNESYLDSVKGRFTISRDNSKNTLYLQMNNLRTEDTAVYYCAKLLVGITTDVFDVWGQGTVVTVSS
VL: DIVMTQSPDSLAVSLGERATINCRSSQSVLSSSNNKNYLAWYQHKPRQPPKLLIYWASTRESGVPDRFSGSGSGTDFTLTISSLQAEDVAVYYCQQYYTASPFFGGGTKVEIK
B4: Fab MGG4 (Fab, V domains shown)
VH: B3 VH
VL: B3 VL
notes: also called MGG4 Fab
B5: mAb 317 (antibody, V domains shown)
VH: QMQLVESGGGVVQPGRSLRLSCTASGFTFSTYAMHWVRQSPGQGLQWVAVISYHSTNKYYEDSVRGRFTISRDNSKNTLYLQMNSLRAEDTAVYYCARDGYSSSFFDFWGQGTLVTVSS
VL: DIQMTQSPSTLSASVGDRVAITCRASQSISRWLAWYQQQPGKAPKLLMSGASVLESGVPSRFSGSGSGTEFTLTISSLQPDDFATYYCQHYNSYFVTFGQGTKVEIK
B6: Fab 317 (Fab, V domains shown)
VH: B5 VH
VL: B5 VL
B7: mAb 663 (antibody, V domains shown)
VH: EVQLLESGGGLEQPGGSLRLSCVVSGFTFSNYAFNWVRQAPGKGLEWVAIIYRSGSRMYHADSVKGRFTISRDDSKNTLFLQMNNLRAEDTAVYYCTTLLIYESDVGVDFWGQGTLVTVSS
VL: DIVMTQSPLSLPVSPGEPASISCRSTQSLIFGEHNYLDWYLQKPGQSPQLLIYLASNRASGVPDRFSGSGSGTYFTLKISRVEAEDFGVYYCVQTVQVPYTFGQGTKLEIK
B8: Fab 663 (Fab, V domains shown)
VH: B7 VH
VL: B7 VL
B9: mAb CIS43 (antibody, V domains shown)
VH: QVQLVQSGAEVKKPGASVKVSCKASGYTFTSYAIHWVRQAPGQRLEWMGWIKAGNGNTRYSQKFQDRVTITRDTSTTTAYMELSSLRSEDTAVYYCALLTVLTPDDAFDIWGQGTMVTVSS
VL: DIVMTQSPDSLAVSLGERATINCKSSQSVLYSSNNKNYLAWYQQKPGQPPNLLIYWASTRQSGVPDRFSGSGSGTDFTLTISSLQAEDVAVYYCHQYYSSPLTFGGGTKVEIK
B10: Fab CIS43 (Fab, V domains shown)
VH: B9 VH
VL: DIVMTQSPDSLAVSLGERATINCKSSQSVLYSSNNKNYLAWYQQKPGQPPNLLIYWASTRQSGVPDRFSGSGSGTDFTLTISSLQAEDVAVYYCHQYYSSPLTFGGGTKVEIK

How the values were obtained:
[1] = biological target: P. falciparum sporozoite CSP (Plasmodium falciparum NF54, UniProt P19597); assay: cell-based or functional assay
NPDP19 peptide = biological target: T1, NPDP19 peptide; assay: ELISA; settings: both partners purified
[2] = biological target: T3, P. falciparum CSP on transgenic P. berghei sporozoites (Plasmodium falciparum, gene strain not …, UniProt Q7K740); assay: ELISA; settings: one partner purified
T3 construct: also called transgenic P. berghei sporozoites carrying the P. falciparum CSP gene; transgenic P. berghei-falciparum sporozoites

NANPx6 peptide = biological target: T4, NANPx6 peptide (Plasmodium falciparum CSP repeat, …); assay: ELISA; settings: both partners purified
T4 construct: also called NANP6; short repeat peptide

biotinylated NANPx6 = biological target: T5, biotinylated NANPx6 (Plasmodium falciparum CSP repeat, …); assay: BLI; Octet RED96; biotinylated FL-CSP or biotinylated NANPx6 on streptavidin biosensors, Fab in solution, kinetics buffer; global fit to 1:1 Langmuir model; settings: both partners purified
T5 construct: also called NANPx6 peptide; NANPx6 target antigen

peptide 21 = biological target: T2, peptide 21; assay: ELISA; settings: both partners purified

Binder | other [1] [%] | binding result (NPDP19 peptide) | binding result [2] | ng/ml mAb needed for OD = 1 (NANPx6 peptide) [ng/mL] | Kd (biotinylated NANPx6) [nM] | koff (biotinylated NANPx6) [s⁻¹] | kon (biotinylated NANPx6) [M⁻¹ s⁻¹] | binding result (peptide 21)
B1 | ~100 | binds | binds | < 10 |  |  |  | 
B2 |  |  |  |  | 7 | 0.0002 | 27000 | 
B3 | ~100 | binds | binds | < 10 |  |  |  | 
B4 |  |  |  |  | 51 | 0.0045 | 90000 | 
B5 |  |  |  | < 10 |  |  |  | 
B6 |  |  |  |  | 0.003 |  |  | 
B7 | ~100 | binds | binds | < 10 |  |  |  | 
B8 |  |  |  |  | 138 | 0.056 | 400000 | 
B9 | ~100 | binds |  | < 10 |  |  |  | binds
B10 |  |  |  |  | 41 | 0.0017 | 40000 | 
